Tests used:
[1] = target: T1, hu-CD226 on Expi293 cells (human, UniProt Q15762 19-336); experiment: FACS, CD226-transfected Expi293 cells
T1 sequence: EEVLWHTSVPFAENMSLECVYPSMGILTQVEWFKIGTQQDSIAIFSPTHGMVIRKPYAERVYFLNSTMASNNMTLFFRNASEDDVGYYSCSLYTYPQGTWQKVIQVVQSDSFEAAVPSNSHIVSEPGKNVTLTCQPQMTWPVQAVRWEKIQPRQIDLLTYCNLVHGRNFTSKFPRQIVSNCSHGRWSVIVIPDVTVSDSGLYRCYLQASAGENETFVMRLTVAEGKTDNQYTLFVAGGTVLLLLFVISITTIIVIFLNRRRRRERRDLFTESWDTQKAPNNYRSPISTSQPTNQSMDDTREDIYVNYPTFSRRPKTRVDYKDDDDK
Experimental: In order to assess the generated antibodies for secondary binding to CD226, sequences encoding human CD226 ("hu-CD226") (SEQ ID NO: 482) and cyno CD226 ("cy-CD226") (SEQ ID NO: 483) (see Table 26 and Sequence Listing) were each cloned into pcDNA3.1 expression vector and Expi293 cells were separately transfected with plasmid containing either the hu-CD226 or cy-CD226 coding sequence. Starting concentrations of 1 μM and corresponding 3X serial dilutions of each antibody, NGS8, 10G1, and MABT398 (CD226 positive control, EMD Millipore, Burlington, MA, USA), were prepared for staining. Secondary antibodies employed included goat anti-mouse F(ab)2-PE (Invitrogen, Carlsbad, CA, USA) and goat anti-human F(ab)2-PE (Jackson ImmunoResearch, West Grove, PA, USA).
Samples, each containing one million transfected cells, were stained with primary antibody for 1 hr and secondary antibody for 30 min at 4° C. with agitation. Stained cells were washed in FACS buffer (1% BSA in PBS), fixed in 4% freshly prepared paraformaldehyde, and analyzed by flow cytometry. Ten thousand events were collected for each sample and curves, showing the fold change in CD226 binding, were separately plotted for hu-CD226 (FIG. 12A) and cy-CD226 (FIG. 12B) expressing cells.

cy-CD226 His tag = target: T2, cy-CD226 His tag (cynomolgus monkey, UniProt A0A2K5W1Z6 19-247, biotinylated); experiment: SPR 25C, biotin-CD226-His captured, IgG analyte
T2 sequence: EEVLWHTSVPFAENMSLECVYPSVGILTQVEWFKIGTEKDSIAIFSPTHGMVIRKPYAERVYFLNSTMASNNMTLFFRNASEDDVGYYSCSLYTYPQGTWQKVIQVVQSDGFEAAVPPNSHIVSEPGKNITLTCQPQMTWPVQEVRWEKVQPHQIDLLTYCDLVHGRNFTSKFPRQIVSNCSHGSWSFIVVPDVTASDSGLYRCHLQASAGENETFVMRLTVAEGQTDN
Experimental: (§1) To determine the binding affinity to hu-CD226 and cy-CD226 of mAb1.v7.NGS8, h10G1, hCD155 and anti-hCD226 antibody DX11 (Abcam, cat #Ab33397), SPR measurement with a BIACORE™ 8K instrument was performed. Briefly, a 1:4 dilution of Biotin CAPture Reagent (GE Healthcare) into HBS-EP buffer (0.01 M HEPES pH 7.4, 0.15 M NaCl, 3 mM EDTA, 0.005% Surfactant P20) was applied to the chip at 2 µL/min flow rate. For the kinetics measurements, 5 µg/ml of biotinylated hu-CD226 His tag (Sino biological, cat #10565-H08H) and cy-CD226 His tag (Arco biosystems, cat #DN1-052H9) was captured at 10 µL/min to achieve ~50 response units in the second flow cell (FC2). FC1 was kept as a reference. Next, 3-fold serial dilutions of IgG in HBS-P buffer (0.01 M HEPES pH 7.4, 0.15 M NaCl, 0.005% surfactant P20) from low (1.3 nM) to high (1000 nM) concentration were injected (flow rate: 30 µL/min) at 25° C. The sensorgram was recorded and subject to reference and buffer subtraction before evaluating by BIACORE® 8K Evaluation Software (version 1.1.1.7442). Association rates ($kon$) and dissociation rates ($koff$) were calculated using a simple one-to-one Langmuir binding model. The equilibrium dissociation constant (K_D) value was calculated as the ratio of $koff/kon$. […]

hu-CD226 His tag = target: T3, hu-CD226 His tag (human, UniProt Q15762 19-247, limits assumed, biotinylated); experiment: SPR 25C, biotin-CD226-His captured, IgG analyte
T3 sequence (looked up): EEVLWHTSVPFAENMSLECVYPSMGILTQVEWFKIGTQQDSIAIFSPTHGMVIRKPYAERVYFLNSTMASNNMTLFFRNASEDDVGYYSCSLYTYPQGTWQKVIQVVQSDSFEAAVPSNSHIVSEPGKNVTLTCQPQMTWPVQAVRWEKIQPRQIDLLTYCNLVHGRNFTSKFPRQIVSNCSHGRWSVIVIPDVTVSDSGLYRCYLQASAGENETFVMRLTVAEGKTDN
Experimental: as §1

hu-CD96 Fc = target: T4, hu-CD96 Fc (human, biotinylated in Table 16); experiment: SPR (Biacore), Fab
T4 construct: also called biotinylated hu-CD96-Fc

B1: 10G1 (clone 10G1.3G8), purified hybridoma antibody (antibody, V domains shown)
VH: QIQLVQSGPELKKPGETVKISCKASGYPFTTYGMSWVKQAPGKGLKWMGWINTDSGVPTYADDFKGRFAFSLETSANTAYLQINSLKNEDAATYFCARNIYYGWGNFDYWGQGTILTVSS
VL: DILMTQSPTTLSVTPGETVSLSCRASQDIYRNLHWYQQKSQGTPRLLIKHASDSISGIPSRFTGSGSGTDFTLSINSVKPEDEGIYYCLQGYSMPYTFGGGTKLEIK
notes: murine hybridoma IgG
[1]
  EC50: 232 nM

B2: h10G1 IgG (humanized 10G1) (antibody, V domains shown)
VH: EIQLVQSGSELKKPGASVKVSCKASGYPFTTYGMSWVRQAPGQGLEWMGWINTDSGVPTYADDFKGRFVFSLDTSVSTAYLQISSLKAEDTAVYFCARNIYYGWGNFDYWGQGTLVTVSS
VL: EIVMTQSPDFQSVTPKEKVTITCRASQDIYRNLHWYQQKPDQTPKLLIKHASDSISGIPSRFSGSGSGTDFTLTINSLEAEDAAAYYCLQGYSMPYTFGGGTKVEIKG
notes: human IgG1 N297G
cy-CD226 His tag
  binding result: no binding (tested: 1000 nM highest)
hu-CD226 His tag
  binding result: no binding (tested: 1000 nM highest)

B3: mAb1.v7 Fab (Fab, V domains shown)
VH: EVQLVQSGAEVKKPGASVKVSCKASGFTFTNNWMHWVRQAPGQGLEWIGMIHPNSGITNINEKFKNRVTMTTDTSTSTAYMELRSLRSEDTAVYYCRSDGTYEGYFDYWGQGTLVTVSS
VL: DIQLTQSPSSLSASVGDRVTITCKASQNVGTAIVWYQQKPGKAPKVLIYSASTRYTGVPSRFSGSGSGTDFTLTISSLQPEDFATYYCQQYSSSPLTFGQGTKVEIK
hu-CD96 Fc
  Kd: 44.6 nM
  koff: 0.000817 s⁻¹
  kon: 18300 M⁻¹ s⁻¹

— patent US12365732 (23ANDME, dated 2025)
